Reference: IntAct's records for PubMed 9687513

B1: Early protein (Human adenovirus C serotype 5 (HAdV-5)), P03255-2 (parent)
chain: MRHIICHGGVITEEMAASLLDQLIEEVLADNLPPPSHFEPPTLHELYDLDVTAPEDPNEEAVSQIFPDSVMLAVQEGIDLLTFPPAPGSPEPPHLSRQPEQPEQRALGPVSMPNLVPEVIDLTCHEAGFPPSDDEDEEGPVSEPEPEPEPEPEPARPTRRPKMAPAILRRPTSPVSRECNSSTDSCDSGPSNTPPEIHPVVPLCPIKPVAVRVGGRRQAVECIEDLLNEPGQPLDLSCKRPRP

Variants of: B1
Settings: with kat2b_human KAT2B
E55A;D56A;P57A;N58A;E59A;E60A was tested, and the “effect of a mutation on the interaction” value was “decreasing interaction”.
